Kd data for 1 molecule are collected here from paper PMC10933344, “A lncRNA Dleu2-encoded peptide relieves autoimmunity by facilitating Smad3-mediated Treg induction” (EMBO Reports, 2024).

The experiment concerns the target T1, Smad3, recombinant (pET28a) (UniProt Q8BUN5 1-425).
T1 construct: the His tag is inferred from the vector only; also called free Smad3; source: bacterial overexpression (pET28a), purified
As to the kind of experiment: BLI; Octet RED96; 50 ug/ml Biotin-labeled Dleu2-17aa immobilised on streptavidin biosensors; 100 mM Tris-HCl pH 8.0, 20 mM MgCl2, 200 mM KCl, 0.1 mg/mL BSA; Smad3 at 1.67-53.3 uM, association 800 s, dissociation in DPBS (0.5% BSA) 180 s; RT. The following applies: both partners purified.

Where no end group is shown, it is not given here.

T1 sequence (Q8BUN5 whole entry): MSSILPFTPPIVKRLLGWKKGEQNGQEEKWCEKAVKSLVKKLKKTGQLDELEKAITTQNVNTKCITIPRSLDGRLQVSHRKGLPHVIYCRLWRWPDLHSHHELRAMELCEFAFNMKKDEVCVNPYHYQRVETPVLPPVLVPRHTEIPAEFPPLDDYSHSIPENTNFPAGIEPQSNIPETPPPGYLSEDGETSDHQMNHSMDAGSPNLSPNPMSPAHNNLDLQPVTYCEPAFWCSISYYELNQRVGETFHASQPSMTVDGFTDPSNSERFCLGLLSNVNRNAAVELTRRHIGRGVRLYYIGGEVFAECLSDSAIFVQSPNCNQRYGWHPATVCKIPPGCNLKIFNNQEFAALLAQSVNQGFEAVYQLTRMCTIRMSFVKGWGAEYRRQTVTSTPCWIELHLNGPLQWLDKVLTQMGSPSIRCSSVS

B1: Biotin-labeled Dleu2-17aa (peptide)
peptide: MLGRRARRRGRGRRRPA
modifications: also: biotin-labeled, position not given here
notes: Dleu2-17aa, 17-amino-acid micropeptide encoded by a short ORF in the first exon of the mouse lncRNA Dleu2; also called Biotin-Dleu2-17aa; biotinylated Dleu2-17aa
As to B1, the Kd was 2430 nM.
